Key:
SARS-COV-2 RBD-mFc = SARS-COV-2 RBD-mFc (SARS-CoV-2); assay: Luminex beads
[1] = target: SARS-CoV-2 Spike Protein (S1 Subunit, Fc Tag) (Sino 40591-V02H) (SARS-CoV-2, UniProt P0DTC2 16-685); assay: Luminex, supernatant
[2] = target: SARS-CoV-2 Spike Protein (S1 Subunit, His Tag) (Sino 40591-V08H) (SARS-CoV-2, UniProt P0DTC2 16-685); assay: Luminex, supernatant

B1: mAb10998 (antibody, V domains shown)
VH: EVQLVESGGGLVHPGGSLRLSCAASGLTVSSNYMSWVRQAPGKGLEWVSVIYSGGSTYYADSVKGRFTISRHNSKNTLFLQMNSLRAEDTAVYYCARDRPITGTTLDVWGQGTTVTVSS
VL: DIQMTQSPSSLFASVGDRVTITCRASQSISSYLNWYQQKPGKAPKLLIYAASSLQSGVPSRFSGSGSGTDFTLTISSLQPEDFAFYYCQQTYSTPPITFGQGTRLEIK
binding result (SARS-COV-2 RBD-mFc): binds

B2: mAb11006 (antibody, V domains shown)
VH: EVQLVESGGGLVQPGGSLRLSCAASGFIVSRNYMSWVRQAPGKGLEWVSVIYSGGSTFYADSVKGRFTISRHNSKNTLYLQMNSLKAEDTAVYYCARELRGYFDYWGQGTLVTVSS
VL: DIQLTQSPSFLSASVGDRVTITCWASQGISSYLAWYQQKPGKAPKLLIYAASTLQSGVPSRFSGSGSGTEFTLTISSLQPEDFATYYCQLLNSYPYTFGQGTKLEIK
binding result (SARS-COV-2 RBD-mFc): binds

B3: mAb10915 (antibody, V domains shown)
VH: EVQLVESGGGLVQPGGSLRLSCAASGFTVSSNYMNWVRQAPGKGLEWVSVIYSGGSTFYADSVKGRFTISRHNSKNTLYLQMNSLRPEDTAVYYCARDLGGYFDYWGQGTLVTVSS
VL: not shown
binding result (SARS-COV-2 RBD-mFc): binds

B4: mAb11008 (antibody, V domains shown)
VH: EVQLVESGGGLVQPGGSLRLSCAASGFTVSSNYMTWVRQAPGKGLEWVSVIYSGGSTFYADSVKGRFTISRHNSENTLYLQMNSLRAEDTAVYYCARDLAAAGTDYWGQGALVTVSS
VL: DIQLTQSPSFLSASVGDRVTITCWASQGISSYLAWYQQKPGKAPKLLIYAASTLQSGVPSRFSGSGSGTEFTLTISSLQPDDFATYYCQHLNSYLYTFGQGTKLEIK
binding result (SARS-COV-2 RBD-mFc): binds

B5: mAb10930 (antibody, V domains shown)
VH: EVQLVESGGGLVQPGRSLRLSCAASGFTFDDYAMYWVRQAPGKGLEWVSGISWNSGSIGYADSVKGRFTISRDNAKNSLYLQMNSLRAADTALYYCAKDKDWNSRGYYYYGMDVWGQGTTVTVSS
VL: not shown
MFI [1]: 16500 MFI
MFI [2]: 21200 MFI

B6: mAb11002 (antibody, V domains shown)
VH: EVQLVESGGGLVQPGGSLRLSCAASGFTVSSNYMSWVRQAPGKGLEWVSVIYSGGSTFYADSVKGRFTISRHNSKNTLYLQMNSLRAEDTAVYYCAREGYGMDVWGQGTTVTVSS
VL: not shown
binding result (SARS-COV-2 RBD-mFc): binds

B7: mAb10954 (antibody, V domains shown)
VH: EVQLVESGGGLVQPGGSLRLSCAASGITVSSNYMSWVRQAPGKGLEWVSLIYSGGSTYYADSVKGRFTISRDNSKNTLYLQMNSLRVEDTAVYYCARDHGMAAAGYNYWGQGTLVTVSS
VL: DIQMTQSPSSLSASVGDRVTITCQASQDINKYLNWYQQKPGKAPKLLIYDASNLETGVPSRFSGSGSGTDFTFTINSLQPEDFATYFCQQYDNLPPAFGQGTKVEIKR
binding result (SARS-COV-2 RBD-mFc): binds

B8: mAb10935 (antibody, V domains shown)
VH: EVQLVESGGGLVQPGGSLRLSCAASGFTVSSNYMSWVRQAPGKGLEWVSLIYSGGSTYYADSVKGRFTISRHNSKNTLYLQMNSLRSEDTAVYYCARVPLGDYYYGMDVWGQGTTVTVSS
VL: DIQMTQSPSSLSASVGDRVTITCQASQDINKYLNWYQQKPGKAPKLLIYDASNLETGVPSRFSGSGSGTDFTFTISSLQPEDIATYYCQQSDNLPLTFGGGTKVEIKR
MFI [1]: 20000 MFI
MFI [2]: 25600 MFI

B9: mAb10934 (antibody, V domains shown)
VH: not shown
VL: DIQMTQSPSSLSASVGDRVTITCQASQDIWNYINWYQQKPGKAPKLLIYDASNLKTGVPSRFSGSGSGTDFTFTISSLQPEDIATYYCQQHDDLPPTFGQGTKVEIKR
MFI [1]: 20600 MFI
MFI [2]: 27500 MFI

B10: mAb11004 (antibody, V domains shown)
VH: QVQLVESGGGVVQPGRSLRLSCVASGFTFSIYGMDWVRQAPGKGLEWVAVISYDGSNKYYADSVKGRFTISRDNSKNTLYLQMNSLRPEDTAVYYCAKDREAAADAFDIWGQGTMVTVSS
VL: DIQMTQSPSSVSASVGDRVTITCRASQGISSWLAWYQQKPGKAPKLLIYAASSLHSGVPSRFSGSGSGTDFTLTISSLQPEDFATYYCQQANSFRLTFGGGTKVEIK
binding result (SARS-COV-2 RBD-mFc): binds

B11: mAb10913 (antibody, V domains shown)
VH: EVQLVESGGGLVQPGGSLRLSCAASGFTFRNYEMNWVRQAPGKGLEWVSYITSSGSTMYYADSVKGRFTISRDNAKNSLYLQMNSLRAEDTAVYYCARDGFYYYYAMDVWGQGTTVTVSS
VL: QSVLTQPPSVSAAPGQKVTISCSGSSSNIGNNYVSWYQQLPGTAPKLLIYDNNKRPSGIPDRFSGSKSGTSATLGITGLQTGDEADYYCGTWDSSLSVGRVFGTGTKVTVLG
MFI [1]: 18900 MFI
MFI [2]: 24900 MFI

B12: mAb10913 (antibody, V domains shown)
VH: EVQLVESGGGLVQPGGSLRLSCAASGFTFRNYEMNWVRQAPGKGLEWVSYITSSGSTMYYADSVKGRFTISRDNAKNSLYLQMNSLRAEDTAVYYCARDGFYYYYAMDVWGQGTTVTVSS
VL: QSVLTQPPSVSAAPGQKVTISCSGSSSNIGNNYVSWYQQLPGTAPKLLIYDNNKRPSGIPDRFSGSKSGTSATLGITGLQTGDEADYYCGTWDSSLSVGRVFGTGTKVTVLG
binding result (SARS-COV-2 RBD-mFc): binds

B13: mAb10956 (antibody, V domains shown)
VH: EVQLVESGGGLVQPGGSLRLSCAASGLTVSSNYMSWVRQAPGKGLEWVSVIYSGGSTFYADSVKGRFTISRDNSKNTLYLQMNSLRAEDTAVYYCARDLIKYGMDVWGQGTTVTVSS
VL: not shown
binding result (SARS-COV-2 RBD-mFc): binds

B14: mAb10939 (antibody, V domains shown)
VH: EVQLVESGGGLVQPGGSLRLSCAASGLTVSSNYMNWVRQVPGKGLEWVSVIYSGGSKFYVDSVKGRFTISRHNSKNTLYLQMNSLRPEDTAVYYCTRDAQYYGMDVWGQGTTVTVSS
VL: DIQMTQSPSSLSASVGDRVTITCRASQSISTYLHWYQQKPGEAPKLLIYAASSLQSGVPSRFSGSGSGTDFTLTISSLQPEDFATYYCQQSYSTPPEIFGQGTKLEIKR
MFI [1]: 18200 MFI
MFI [2]: 23900 MFI

B15: mAb10957 (antibody, V domains shown)
VH: EVQLVESGGGLVQPGGSLRLSCAASGVTVSSNYMSWVRQAPGKGLEWVSVIYSGGSTFYADSVKGRFTISRDNSKNTLFLQMNSLRIEDTAVYYCARDLGPYGMDVWGQGTTVTVSS
VL: DIQLTQSPSFLSASVGDRVTITCRASQGISSYLAWYQQKPGKAPKLLIYAASTLQSGVPSRFSGSGSGTQFILTISSLQPEDFATYYCQQLNSYPGFTFGPGTKVDIKR
binding result (SARS-COV-2 RBD-mFc): binds

B16: mAb10914 (antibody, V domains shown)
VH: EVQLVESGGGLVQPGGSLRLSCAASGLIVSRNYMIWVRQAPGKGLEWVSVIYSGGSTFYADSVKGRFTISRHNSKNTLYLQMNSLRAEDTAVYYCARDLGTGGMDVWGQGTTVTVSS
VL: DIQLTQSPSFLSASVGDRVTITCWASQGISSYLAWYQQKPGKAPKLLIYAASTLQSGVPSRFSGSGSGTEFTLTISSLQPEDFATYYCQQLNSYPLTFGGGTKVEIKR
binding result (SARS-COV-2 RBD-mFc): binds

B17: mAb10955 (antibody, V domains shown)
VH: EVQLVESGGGLVQPGGSLRVSCAASGFTVSRNYMSWVRQAPGKGLEWVSVIYSGGSTFYADSVKGRFTISRDNSKNTLYLQMNSLRAEDTAIYYCARYIPRFDPWGQGTLVTVSS
VL: DIQMTQSPSSLSASVGDRVTITCQASQDISNYLNWFQQKPGRAPKLLIYDASNLETGVPSRFSGSGSGTDFTFTISSLQPEDIATYYCQQYDNLPITFGQGTRLEIKR
binding result (SARS-COV-2 RBD-mFc): binds

B18: mAb10921 (antibody, V domains shown)
VH: EVQLVESGGGLVQPGGSLRLSCAASGITVSSNYMSWVRQAPGKGLEWVSVIYSGGSTFYADSVKGRFTISRHNSKNTLYLQMNSLRAEDTAVYYCARERNFDAFDIWGQGTMVTVSS
VL: DIQMTQSPSSVSASVGDRVTITCRASQGISSWLAWYQQKPGKAPKLLIYAASSLQSGVPSRFSGSGSGTDFTLTISSLQPEDFATYYCQQANSFPLFTFGPGTKVDIKR
MFI [1]: 8960 MFI
MFI [2]: 12200 MFI

B19: mAb10937 (antibody, V domains shown)
VH: QITLKESGPTLVKPTQTLTLTCTFSGFSLSTNVVGVGWIRQPPGKALEWLALIYWNDDKRYSPSLKSRLTITKDTSKNQVVLTMTNMDPVDTATYYCAHGPTGDYFDYWGQGTLVTVSS
VL: not shown
MFI [1]: 19600 MFI
MFI [2]: 26400 MFI

B20: mAb11010 (antibody, V domains shown)
VH: QVQLVESGGGVVQPGRSLRLSCAASGFTFSSYGMHWVRQAPGKGLEWVAVISYDGSYKYYADSVKGRFTISRDNSKNTLYLQMNSLRAEDTAVYYCAIDGGTVTTIFDYWGQGTLVTVSS
VL: not shown
binding result (SARS-COV-2 RBD-mFc): binds

B21: mAb10932 (antibody, V domains shown)
VH: EVQLVESGGGLVQSGGSLRLSCAASGLTVSSNYMSWVRQAPGKGLEWVSVIYSGGSTFYSDSVKGRFTISRHNSKNTLYLQMNSLRAEDTAVYYCARARGDAFDIWGQGTMVTVSS
VL: not shown
MFI [1]: 17600 MFI
MFI [2]: 22100 MFI

B22: mAb10982 (antibody, V domains shown)
VH: EVQLVESGGGLVQPGGSLRLSCAASGLTVSSNYMSWVRQAPGKGLEWVSVIYSGGTTYYADSVKGRFTISRHNSKNTLSLQMNSLRAEDTAVYYCARGEGANYYGMDVWGQGTTVTVSS
VL: QSVLTQPPSVSGAPGQRVTISCTGSSSNIGTGYDVHWYQQLPGTAPKLLIYGNSNRPSGVPDRFSGSKSGTSASLAITGLQAEDEADYYCQSYDSSLSGYVVFGGGTKLTVLG
MFI [1]: 10800 MFI
MFI [2]: 14000 MFI

B23: mAb10986 (antibody, V domains shown)
VH: EVQLVESGGGLVQPGGSLRLSCAASEFTVSSNYMSWVRQAPGKGLEWVSVIYSGGSTFYADSVKGRFTISRDNSKNTLYLQMNSLRAEDTAVYYCARALPYGDLHFDYWGQGTLVTVSS
VL: QSVLTQPPSVSGAPGQRVTISCTGSSSNIGTGYDVHWYQQLPGTAPKLLIYGNTNRPSGVPDRFSGSKSGTSASLAITGLQAEDEADYYCQSYDSSLSDSYVFGTGTKVTVLG
MFI [1]: 16000 MFI
MFI [2]: 19100 MFI

B24: mAb10985 (antibody, V domains shown)
VH: EVQLVESGGGLVQPGRSLRLSCAASGFTFDDYAMHWVRQAPGKGLEWVSGISWNRGSIGYADSVKGRFTISRDNAKNSLYLQMSSLRAEDTALYYCAKDGERWDSVVVPSARNGMDVWGQGTTVTVSS
VL: QSVLTQPPSVSGAPGQRVTISCTGSSSNIGAGYDVHWYQQLPGTAPKLLIYGNSNRPSGVPDRFSGSKSGTSASLAITGLQAEDEADYYCQSYDSSLSGSYVFGTGTKVTVLG
MFI [1]: 16200 MFI

Source: patent US20240043504A1 (published 2024)
